Data as given in the supplement of paper PMC7125110.
± gives the standard error. Fewer inactive variants are shown than the library holds.

B1: glmS ribozyme (parent)
chain: AUAAAAGCGCCAGAACUACAGAAAUGUAGUUGACGAGGAGGAGGUUUAUCGAAUUUUCGGCGGAUGCCUCCAAA

Experiments:
Conditions in all cases: with glucosamine-6-phosphate
glucosamine-6-phosphate [1] = variants of: B1; test: self-cleavage kobs at 40 uM GlcN6P; higher = faster cleavage; RNA array
Procedure, shortened: (§1)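 On sequenced MiSeq chips, barcoded ribozyme variants were made in situ by E. coli RNA polymerase and followed at 37 °C through a hybridised Cy3 probe. Glucosamine-6-phosphate was flowed in at 40 μM to 10 mM in HEPES/KCl/Mg(OAc)2 buffer. Exponential fits to normalised per-tile medians gave kobs, and weighted Michaelis–Menten fits gave kcat and KM.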

glucosamine-6-phosphate [2] = variants of: B1; test: self-cleavage kobs at 640 uM GlcN6P; higher = faster cleavage; RNA array
Procedure, shortened: as §1

glucosamine-6-phosphate [3] = variants of: B1; test: self-cleavage kobs at 10000 uM GlcN6P; higher = faster cleavage; RNA array
Procedure, shortened: as §1

glucosamine-6-phosphate [4] = variants of: B1; test: self-cleavage kobs at 160 uM GlcN6P; higher = faster cleavage; RNA array
Procedure, shortened: as §1

glucosamine-6-phosphate [5] = variants of: B1; test: self-cleavage kobs at 2500 uM GlcN6P; higher = faster cleavage; RNA array
Procedure, shortened: as §1

Row | Variant | self-cleavage kobs at 40 uM GlcN6P (glucosamine-6-phosphate [1]) [s⁻¹] | self-cleavage kobs at 640 uM GlcN6P (glucosamine-6-phosphate [2]) [s⁻¹] | self-cleavage kobs at 10000 uM GlcN6P (glucosamine-6-phosphate [3]) [s⁻¹] | self-cleavage kobs at 160 uM GlcN6P (glucosamine-6-phosphate [4]) [s⁻¹] | self-cleavage kobs at 2500 uM GlcN6P (glucosamine-6-phosphate [5]) [s⁻¹]
1 | A42U G63A | < 1e-05 | < 1e-05 | < 1e-05 | – | –
2 | C8U C10G | < 1e-05 | < 1e-05 | < 1e-05 | – | –
3 | G51A G60C | < 1e-05 | < 1e-05 | – | – | –
4 | C34A U45A | < 1e-05 | < 1e-05 | – | < 1e-05 | < 1e-05
5 | A53G C70U | 0.00158 ± 0.00015 | 0.0139 ± 0.0036 | 0.0616 ± 0.014 | 0.00129 ± 0.00027 | –
6 | C68A | < 1e-05 | 0.000539 ± 0.00015 | 0.000447 ± 7.5e-05 | 5.51e-05 ± 1.8e-05 | 0.000102 ± 4.6e-05
7 | U30G G62C | < 1e-05 | < 1e-05 | < 1e-05 | < 1e-05 | –
8 | A39U G59C | < 1e-05 | < 1e-05 | < 1e-05 | < 1e-05 | < 1e-05
9 | C11U U45G U55A C67G C68A | 6.74e-05 ± 3.3e-05 | – | 5.91e-05 ± 1.9e-05 | – | –
10 | A14C G29U C50G | 0.000119 ± 3.7e-05 | – | – | – | –
11 | G37C A48C | < 1e-05 | < 1e-05 | < 1e-05 | – | < 1e-05
12 | G29U U54G C58U U69G | 6.42e-05 ± 2.3e-05 | – | – | – | –
13 | A14C U55A U56G | 0.002 ± 0.00048 | 0.0195 ± 0.0041 | – | – | 0.0295 ± 0.013
14 | G7C G62U | < 1e-05 | – | < 1e-05 | – | < 1e-05
15 | G7U G38A A48G G60C | < 1e-05 | – | < 1e-05 | – | –
16 | U31C G60U | < 1e-05 | – | < 1e-05 | < 1e-05 | –
17 | G9U G32U G41U A53C | < 1e-05 | – | < 1e-05 | – | –
18 | G29C A42C | < 1e-05 | < 1e-05 | < 1e-05 | – | < 1e-05
19 | G9U A39U | < 1e-05 | – | – | – | –
20 | G38U C70G | 2.71e-05 ± 1e-05 | 0.000298 ± 0.00014 | – | 0.000289 ± 9.3e-05 | –
21 | G13A G44C C61A U69G | < 1e-05 | – | – | – | –
22 | C50U G51A | < 1e-05 | < 1e-05 | < 1e-05 | – | < 1e-05
23 | G44U U45C G63A | < 1e-05 | – | – | – | –
24 | G40C G41C | < 1e-05 | – | 6.89e-05 ± 1.3e-05 | – | –

Row | Variant | self-cleavage kobs at 40 uM GlcN6P (glucosamine-6-phosphate [1]) [s⁻¹] | self-cleavage kobs at 640 uM GlcN6P (glucosamine-6-phosphate [2]) [s⁻¹] | self-cleavage kobs at 10000 uM GlcN6P (glucosamine-6-phosphate [3]) [s⁻¹] | self-cleavage kobs at 160 uM GlcN6P (glucosamine-6-phosphate [4]) [s⁻¹] | self-cleavage kobs at 2500 uM GlcN6P (glucosamine-6-phosphate [5]) [s⁻¹]
25 | A14U G43A C61G U65A | < 1e-05 | – | < 1e-05 | – | –
26 | A15C A39G | 0.000398 ± 9.2e-05 | 0.00224 ± 0.00049 | 0.013 ± 0.0025 | – | 0.00476 ± 0.0014
27 | U30G G32C A39G U45C A52U G63A | < 1e-05 | < 1e-05 | < 1e-05 | – | < 1e-05
28 | A36C G66A | < 1e-05 | – | < 1e-05 | – | –
29 | G40A U57G | < 1e-05 | < 1e-05 | – | – | < 1e-05
30 | U55G C68U | 0.000294 ± 3.6e-05 | 0.00158 ± 0.00035 | 0.00508 ± 0.00094 | 0.00035 ± 8.1e-05 | 0.000382 ± 8.7e-05
31 | C10G C11G G63C | < 1e-05 | – | < 1e-05 | – | –
32 | U49C G62C | < 1e-05 | < 1e-05 | – | – | < 1e-05
33 | A36G A39U A48U C70G | < 1e-05 | < 1e-05 | < 1e-05 | < 1e-05 | < 1e-05
34 | A33U A36C A39C G41C G44A U46G G51U C58U A64U | < 1e-05 | – | < 1e-05 | – | –
35 | G35U G41U | < 1e-05 | – | < 1e-05 | < 1e-05 | < 1e-05
36 | G7C U46G C67G | < 1e-05 | – | < 1e-05 | – | –
37 | C8A G59C | < 1e-05 | < 1e-05 | – | – | < 1e-05
38 | C10G C70U | < 1e-05 | – | – | – | –
39 | G35U U45A C50G | < 1e-05 | – | – | – | –
40 | A5U G40C | 0.000123 ± 2.6e-05 | – | – | – | 0.000574 ± 0.00021
41 | G9U C16U A52G C67G | 0.000158 ± 3.7e-05 | – | 0.000546 ± 0.00017 | – | –
42 | C50U A52U | < 1e-05 | < 1e-05 | < 1e-05 | < 1e-05 | < 1e-05
43 | C11U G29U A39U A64U | < 1e-05 | – | – | – | –
44 | A36G C50G | 3.66e-05 ± 1.5e-05 | – | – | – | –
45 | C11G A14G G63U C70A | 9.38e-05 ± 2.9e-05 | – | – | – | 0.000123 ± 5.4e-05
46 | A12U G37C A53C U54A | < 1e-05 | – | – | – | –
47 | G60U U65A | < 1e-05 | < 1e-05 | < 1e-05 | < 1e-05 | < 1e-05
